Measurements from article PMC8287954, “Assembly of higher-order SMN oligomers is essential for metazoan viability and requires an exposed structural motif present in the YG zipper dimer” (Nucleic Acids Research, 2021).
Values joined by “and” are separate entries in the source; they are usually repeats but may differ in a detail not shown here. Equal entries are not always repeated.

B4: Drosophila melanogaster Gemin2 (natural protein, UniProt Q9VVX0 1-245, looked up)
chain: MQHEPEDQTFQLQALEICEPDSSFDPQKPPESGEEYLMHMFYERKRCPAVVTKRSSKIRNNTGNTTLEMLDNPELPPFKCLLPTPEWRDEQVKSFQAARSQVLVLRKELANNNYDQSGEPPLTSDQEKWKEFCRNQQPLLSTLLHLTQNDLELLLEMLSKWLQDPNTTVDLLHDVWLARWLYATLVCLHLPLEPHVFSTLRYIARTCIHLRNQLKEDEVQRAAPYNLLLTLTVQVFAQNDFKDYI
notes: Drosophila melanogaster Gemin2 (dmGemin2); also called dmGemin2; dmG2; source: E. coli BL21(DE3), purified (Ni-NTA, chitin beads, Superdex 200)

Tests used:
[1] = target: B4; experiment: SEC; complex reconstituted from separately purified proteins, two molar excess of dmGemin2, HFS tag cut with Ulp1, second Ni-NTA pass, Superdex 200 16/60 at 20°C, 20 mM Na/KPO4 pH 7.0, 300 mM NaCl, 1 mM DTT; conditions: both partners purified
[2] = target: the molecule itself; experiment: AUC; sedimentation velocity, 20 mM HEPES–NaOH pH 7.5, 300 mM NaCl, 0.1 mM TCEP, 0.16–1.0 mg/ml, 40 000 rpm; 25°C and 4°C (smaller species at 4°C)
[3] = target: the molecule itself; experiment: cross-linking; disulfide cross-linking of single-cysteine MBP-YG box fusions, 5 μM, 20 mM Tris-HCl pH 7.4, 200 mM NaCl, 1 mM EDTA, 10 mM maltose, 160 μM diamide, 1 h, 20°C; non-reducing SDS-PAGE
[4] = target: the molecule itself; experiment: SEC-MALS; Superdex 200 10/300 GL, 0.5 ml/min, room temperature (20°C), 50 mM HEPES-NaOH pH 7.5, 250 mM NaCl, 5 mM DTT; self-association of the SMN•G2 unit, (SMN•G2)n
[5] = target: the molecule itself; experiment: AUC; sedimentation equilibrium, 4°C, 20 mM Tris-HCl pH7.4, 200 mM NaCl, 5 mM DTT; monomer to dimer
[6] = target: the molecule itself; experiment: not stated; shown in Supplementary Figure S2; method not given
[7] = target: the molecule itself; experiment: SEC-MALS; Superdex 200 10/300 GL, 0.5 ml/min, room temperature (20°C), 50 mM HEPES-NaOH pH 7.5, 250 mM NaCl, 5 mM DTT; self-association of the SMN•G2 unit, (SMN•G2)n; remark: listed apart in the source

B1: Drosophila melanogaster SMN (natural protein, UniProt Q9VV74 1-226, looked up)
chain: MSDETNAAVWDDSLLVKTYDESVGLAREALARRLADSTNKREEENAAAAEEEAGEISATGGATSPEPVSFKVGDYARATYVDGVDYEGAVVSINEEKGTCVLRYLGYENEQEVLLVDLLPSWGKRVRREQFLIAKKDEDEQLSRPKASAGSHSKTPKSSRRSRISGGLVMPPMPPVPPMIVGQGDGAEQDFVAMLTAWYMSGYYTGLYQGKKEASTTSGKKKTPKK
notes: Drosophila melanogaster SMN (dmSMN); In the reconstitution the HFS tag was cut off with Ulp1 after dmGemin2 was added; also called dmSMN; source: E. coli BL21(DE3), purified (Ni-NTA after lysis in guanidine•HCl, urea wash)
Question: Does B1 bind [1]?
Answer: binds

Question: Does B1 bind [2]?
Answer: binds

B2: MBP-spSMN YG box (112–152) A141Y, A145C (domain or fragment, Schizosaccharomyces pombe, UniProt Q09808 112-152, looked up)
chain: PPPIRGLTYDETYKKLIMSWYYAGYYTGLYEGLCKSEQRKD
notes: S. pombe SMN, residues 112-152; SMN residues fused to the penultimate Thr of E. coli MBP with a Gly-Ser linker; also called A145C mutant with an A141Y substitution; source: E. coli BL21(DE3), purified (amylose resin); not shown: MBP, N-terminal, kept
Question: Does B2 bind [3]?
Answer: binds

B3: Hs^1-275-GCN4(IL) chimera•Gemin2 (complex)
chain 1: not shown
chain 2: MAWVPAESAVEELMPRLLPVEPCDLTEGFDPSVPPRTPQEYLRRVQIEAAQCPDVVVAQIDPKKLKRKQSVNISLSGCQPAPEGYSPTLQWQQQQVAQFSTVRQNVNKHRSHWKSQQLDSNVTMPKSEDEEGWKKFCLGEKLCADGAVGPATNESPGIDYVQIGFPPLLSIVSRMNQATVTSVLEYLSNWFGERDFTPELGRWLYALLACLEKPLLPEAHSLIRQLARRCSEVRLLVDSKDDERVPALNLLICLVSRYFDQRDLADEPS
Question: B3 was tested. Which “stoichiometry N” value [4] did it give?
Answer: 2

Question: Which Kd [5] does the source give for B4 here?
Answer: 33.4 ± 5 µM

B5: MBP-dmSMN^186-220 (domain or fragment, Drosophila melanogaster, UniProt Q9VV74 186-220, looked up)
chain: GAEQDFVAMLTAWYMSGYYTGLYQGKKEASTTSGK
notes: The SEC-SAXS methods print 189-220 for this fusion; also called MBP-dmSMN^189–220; source: expressed from pETDuet at 37°C, purified (amylose resin, Superdex-200); not shown: MBP, N-terminal, kept
Question: How did the “stoichiometry N” value [6] turn out when B5 was run?
Answer: 4 and 8

B6: MBP-hsSMN^252-294(C289A, N283C) (domain or fragment, human, UniProt Q16637 252-294, looked up)
chain: DSLDDADALGSMLISWYMSGYHTGYYMGFRQCQKEGRASHSLN
notes: human SMN YG box, residues 252-294; also called hsSMN^N283C; source: E. coli BL21(DE3), purified (amylose resin); not shown: MBP, N-terminal, kept
Question: Does B6 bind [3]?
Answer: binds

B7: MBP-hsSMN^252-294(C289A, T274C) (domain or fragment, human, UniProt Q16637 252-294, looked up)
chain: DSLDDADALGSMLISWYMSGYHCGYYMGFRQNQKEGRASHSLN
notes: human SMN YG box, residues 252-294; also called hsT274C; source: E. coli BL21(DE3), purified (amylose resin); not shown: MBP, N-terminal, kept
Question: Does B7 bind [3]?
Answer: binds

B8: MBP-hsSMN^252-294(C289A, R281C) (domain or fragment, human, UniProt Q16637 252-294, looked up)
chain: DSLDDADALGSMLISWYMSGYHTGYYMGFCQNQKEGRASHSLN
notes: human SMN YG box, residues 252-294; source: E. coli BL21(DE3), purified (amylose resin); not shown: MBP, N-terminal, kept
Question: Does B8 bind [3]?
Answer: binds

B9: MBP-hsSMN^252-294(C289A, S262C) (domain or fragment, human, UniProt Q16637 252-294, looked up)
chain: DSLDDADALGCMLISWYMSGYHTGYYMGFRQNQKEGRASHSLN
notes: as for B8
Question: Does B9 bind [3]?
Answer: binds

B10: MBP-hsSMN^252-294(C289A, Y277C) (domain or fragment, human, UniProt Q16637 252-294, looked up)
chain: DSLDDADALGSMLISWYMSGYHTGYCMGFRQNQKEGRASHSLN
notes: human SMN YG box, residues 252-294; also called hsY277C; source: E. coli BL21(DE3), purified (amylose resin); not shown: MBP, N-terminal, kept
Question: Does B10 bind [3]?
Answer: binds

B11: Schizosaccharomyces pombe SMN•Gemin2 complex (complex)
chain 1: MDQSQKEVWDDSELRNAFETALHEFKKYHSIEAKGGVSDPDSRLDGEKLISAARTEESISKLEEGEQMINQQTETTLEGDTHIQQFADNKGLSDEKPETRAAETHQEFMEVPPPIRGLTYDETYKKLIMSWYYAGYYTGLAEGLAKSEQRKD
chain 2: MPSKRKRNPLQYQTSGSLDEETNQRSAFPQIDNNSASESLEYDIPLDGLDYLATVREEARKLVPFVAARREPETRETIPLRKLEIEAGKKSFDPFLRYLLNIIDKEGERLEQYMESSSLDASILPKNLQQWRVYIEHKAPCWAILAVVDLATVLEILESLSSWLEKDAIDLQSQWIFCFCYKLPELLNGEDISTLRSVLKSLRSTHTSFPALQMSASALQAVLVYRYGQKDLFQT
notes: S. pombe SMN (Smn1p); S. pombe Gemin2; also called spSMN•G2; wild-type Smn1p; source: bacterial co-expression, purified as previously described (24)
Question: With B11 as the binder, how does the “stoichiometry N” value [7] read?
Answer: 2 and 4

B12: spSMN(Y137H)•Gemin2 (complex, Schizosaccharomyces pombe)
chain 1: MDQSQKEVWDDSELRNAFETALHEFKKYHSIEAKGGVSDPDSRLDGEKLISAARTEESISKLEEGEQMINQQTETTLEGDTHIQQFADNKGLSDEKPETRAAETHQEFMEVPPPIRGLTYDETYKKLIMSWYYAGYHTGLAEGLAKSEQRKD
chain 2: MPSKRKRNPLQYQTSGSLDEETNQRSAFPQIDNNSASESLEYDIPLDGLDYLATVREEARKLVPFVAARREPETRETIPLRKLEIEAGKKSFDPFLRYLLNIIDKEGERLEQYMESSSLDASILPKNLQQWRVYIEHKAPCWAILAVVDLATVLEILESLSSWLEKDAIDLQSQWIFCFCYKLPELLNGEDISTLRSVLKSLRSTHTSFPALQMSASALQAVLVYRYGQKDLFQT
notes: S. pombe SMN (Smn1p); S. pombe Gemin2; also called spY137H; source: recombinant; yeast SMN•G2 complexes purified as previously described (24)
Question: Does B12 bind [7]?
Answer: binds

B13: spSMN(A145Q)•Gemin2 (complex, Schizosaccharomyces pombe)
chain 1: MDQSQKEVWDDSELRNAFETALHEFKKYHSIEAKGGVSDPDSRLDGEKLISAARTEESISKLEEGEQMINQQTETTLEGDTHIQQFADNKGLSDEKPETRAAETHQEFMEVPPPIRGLTYDETYKKLIMSWYYAGYYTGLAEGLQKSEQRKD
chain 2: MPSKRKRNPLQYQTSGSLDEETNQRSAFPQIDNNSASESLEYDIPLDGLDYLATVREEARKLVPFVAARREPETRETIPLRKLEIEAGKKSFDPFLRYLLNIIDKEGERLEQYMESSSLDASILPKNLQQWRVYIEHKAPCWAILAVVDLATVLEILESLSSWLEKDAIDLQSQWIFCFCYKLPELLNGEDISTLRSVLKSLRSTHTSFPALQMSASALQAVLVYRYGQKDLFQT
notes: S. pombe SMN (Smn1p); S. pombe Gemin2; also called spA145Q; source: recombinant; yeast SMN•G2 complexes purified as previously described (24)
Question: Does B13 bind [7]?
Answer: binds

B14: spSMN(A141Q)•Gemin2 (complex, Schizosaccharomyces pombe)
chain 1: MDQSQKEVWDDSELRNAFETALHEFKKYHSIEAKGGVSDPDSRLDGEKLISAARTEESISKLEEGEQMINQQTETTLEGDTHIQQFADNKGLSDEKPETRAAETHQEFMEVPPPIRGLTYDETYKKLIMSWYYAGYYTGLQEGLAKSEQRKD
chain 2: MPSKRKRNPLQYQTSGSLDEETNQRSAFPQIDNNSASESLEYDIPLDGLDYLATVREEARKLVPFVAARREPETRETIPLRKLEIEAGKKSFDPFLRYLLNIIDKEGERLEQYMESSSLDASILPKNLQQWRVYIEHKAPCWAILAVVDLATVLEILESLSSWLEKDAIDLQSQWIFCFCYKLPELLNGEDISTLRSVLKSLRSTHTSFPALQMSASALQAVLVYRYGQKDLFQT
notes: S. pombe SMN (Smn1p); S. pombe Gemin2; also called spA141Q; source: recombinant; yeast SMN•G2 complexes purified as previously described (24)
Question: Does B14 bind [7]?
Answer: binds

B15: spSMN(G143V)•Gemin2 (complex, Schizosaccharomyces pombe)
chain 1: MDQSQKEVWDDSELRNAFETALHEFKKYHSIEAKGGVSDPDSRLDGEKLISAARTEESISKLEEGEQMINQQTETTLEGDTHIQQFADNKGLSDEKPETRAAETHQEFMEVPPPIRGLTYDETYKKLIMSWYYAGYYTGLAEVLAKSEQRKD
chain 2: MPSKRKRNPLQYQTSGSLDEETNQRSAFPQIDNNSASESLEYDIPLDGLDYLATVREEARKLVPFVAARREPETRETIPLRKLEIEAGKKSFDPFLRYLLNIIDKEGERLEQYMESSSLDASILPKNLQQWRVYIEHKAPCWAILAVVDLATVLEILESLSSWLEKDAIDLQSQWIFCFCYKLPELLNGEDISTLRSVLKSLRSTHTSFPALQMSASALQAVLVYRYGQKDLFQT
notes: S. pombe SMN (Smn1p); S. pombe Gemin2; also called spG143V; source: recombinant; yeast SMN•G2 complexes purified as previously described (24)
Question: Does B15 bind [7]?
Answer: binds
